Experiments:
LZTR1 R810W-FLAG = molecular target: T1, LZTR1 R810W-FLAG (human, UniProt Q8N653 1-840); test: IP/MS, LZTR1 R810W-FLAG, U87
T1 construct: Stably expressed in U87 cells by lentivirus; also called LZTR1-FLAG-R810W; LZTR1 RW; not shown: FLAG tag
T1 sequence (looked up): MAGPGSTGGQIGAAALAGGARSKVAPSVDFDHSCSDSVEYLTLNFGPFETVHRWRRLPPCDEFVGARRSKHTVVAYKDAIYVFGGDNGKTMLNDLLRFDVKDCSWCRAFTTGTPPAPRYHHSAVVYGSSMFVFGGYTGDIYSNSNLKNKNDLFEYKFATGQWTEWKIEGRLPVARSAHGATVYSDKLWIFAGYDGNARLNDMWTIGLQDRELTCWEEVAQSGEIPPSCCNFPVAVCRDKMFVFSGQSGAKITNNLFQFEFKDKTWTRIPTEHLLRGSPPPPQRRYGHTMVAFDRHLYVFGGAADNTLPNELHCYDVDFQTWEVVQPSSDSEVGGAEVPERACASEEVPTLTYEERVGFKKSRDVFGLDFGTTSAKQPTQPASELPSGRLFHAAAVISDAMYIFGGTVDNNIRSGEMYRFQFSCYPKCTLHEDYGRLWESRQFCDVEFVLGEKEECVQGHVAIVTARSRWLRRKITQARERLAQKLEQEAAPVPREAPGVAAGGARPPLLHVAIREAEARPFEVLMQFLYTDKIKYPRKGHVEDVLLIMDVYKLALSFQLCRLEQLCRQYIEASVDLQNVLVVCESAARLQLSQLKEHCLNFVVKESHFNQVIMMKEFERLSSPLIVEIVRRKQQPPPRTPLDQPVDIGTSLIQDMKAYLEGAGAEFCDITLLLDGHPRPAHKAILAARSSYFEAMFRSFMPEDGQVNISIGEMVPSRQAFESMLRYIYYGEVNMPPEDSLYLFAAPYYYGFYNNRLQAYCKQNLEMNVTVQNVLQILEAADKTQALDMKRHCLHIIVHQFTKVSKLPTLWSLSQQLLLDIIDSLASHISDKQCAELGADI
In short: (§1)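 Gel slices were reduced with 5 mM DTT, alkylated with 11 mM IAA and digested overnight at 37° C. with trypsin. Peptides were analysed on an Orbitrap Fusion Tribrid by LC-MS/MS.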

LZTR1-FLAG = molecular target: T2, LZTR1-FLAG (human, UniProt Q8N653 1-840); test: IP/MS, LZTR1 wild type-FLAG, U87
T2 construct: Expressed in HEK 293T, HeLa or U87 cells; used as cell lysate; also called LZTR1 wild type-FLAG; LZTR1 WT; not shown: FLAG tag at the C-terminus
T2 sequence (looked up): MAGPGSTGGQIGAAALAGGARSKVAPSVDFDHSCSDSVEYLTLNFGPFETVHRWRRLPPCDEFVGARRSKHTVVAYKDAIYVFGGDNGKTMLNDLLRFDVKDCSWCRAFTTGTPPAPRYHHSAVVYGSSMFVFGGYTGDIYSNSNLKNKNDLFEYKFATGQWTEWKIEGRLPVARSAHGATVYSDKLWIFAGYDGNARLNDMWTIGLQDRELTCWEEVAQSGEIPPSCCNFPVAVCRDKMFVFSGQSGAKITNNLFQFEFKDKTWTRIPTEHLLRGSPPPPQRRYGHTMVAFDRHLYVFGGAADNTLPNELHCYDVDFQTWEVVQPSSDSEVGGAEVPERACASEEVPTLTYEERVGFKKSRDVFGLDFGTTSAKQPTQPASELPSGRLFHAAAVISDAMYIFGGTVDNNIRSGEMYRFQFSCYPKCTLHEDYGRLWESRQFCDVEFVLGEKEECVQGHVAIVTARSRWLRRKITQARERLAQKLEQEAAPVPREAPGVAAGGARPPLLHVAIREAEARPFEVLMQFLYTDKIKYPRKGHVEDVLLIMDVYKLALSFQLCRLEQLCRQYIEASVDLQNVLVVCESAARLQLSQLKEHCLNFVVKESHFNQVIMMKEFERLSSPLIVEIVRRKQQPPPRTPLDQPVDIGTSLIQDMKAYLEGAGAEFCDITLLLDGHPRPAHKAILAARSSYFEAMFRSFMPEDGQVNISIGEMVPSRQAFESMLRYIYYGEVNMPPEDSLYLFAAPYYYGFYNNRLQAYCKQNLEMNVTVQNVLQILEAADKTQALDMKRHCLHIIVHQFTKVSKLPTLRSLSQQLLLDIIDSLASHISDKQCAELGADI
In short: as §1

Row | binding result (LZTR1 R810W-FLAG) | binding result (LZTR1-FLAG) | Binder
1 | binds | binds | IFT57 (other, human, UniProt Q9NWB7 1-429, looked up) MTAALAVVTTSGLEDGVPRSRGEGTGEVVLERGPGAAYHMFVVMEDLVEKLKLLRYEEEFLRKSNLKAPSRHYFALPTNPGEQFYMFCTLAAWLINKAGRPFEQPQEYDDPNATISNILSELRSFGRTADFPPSKLKSGYGEHVCYVLDCFAEEALKYIGFTWKRPIYPVEELEEESVAEDDAELTLNKVDEEFVEEETDNEENFIDLNVLKAQTYHLDMNETAKQEDILESTTDAAEWSLEVERVLPQLKVTIRTDNKDWRIHVDQMHQHRSGIESALKETKGFLDKLHNEITRTLEKISSREKYINNQLENLVQEYRAAQAQLSEAKERYQQGNGGVTERTRLLSEVMEELEKVKQEMEEKGSSMTDGAPLVKIKQSLTKLKQETVEMDIRIGIVEHTLLQSKLKEKSNMTRNMHATVIPEPATGFY
2 | binds | binds | IKBKB (other, human, UniProt O14920 1-756, looked up) MSWSPSLTTQTCGAWEMKERLGTGGFGNVIRWHNQETGEQIAIKQCRQELSPRNRERWCLEIQIMRRLTHPNVVAARDVPEGMQNLAPNDLPLLAMEYCQGGDLRKYLNQFENCCGLREGAILTLLSDIASALRYLHENRIIHRDLKPENIVLQQGEQRLIHKIIDLGYAKELDQGSLCTSFVGTLQYLAPELLEQQKYTVTVDYWSFGTLAFECITGFRPFLPNWQPVQWHSKVRQKSEVDIVVSEDLNGTVKFSSSLPYPNNLNSVLAERLEKWLQLMLMWHPRQRGTDPTYGPNGCFKALDDILNLKLVHILNMVTGTIHTYPVTEDESLQSLKARIQQDTGIPEEDQELLQEAGLALIPDKPATQCISDGKLNEGHTLDMDLVFLFDNSKITYETQISPRPQPESVSCILQEPKRNLAFFQLRKVWGQVWHSIQTLKEDCNRLQQGQRAAMMNLLRNNSCLSKMKNSMASMSQQLKAKLDFFKTSIQIDLEKYSEQTEFGITSDKLLLAWREMEQAVELCGRENEVKLLVERMMALQTDIVDLQRSPMGRKQGGTLDDLEEQARELYRRLREKPRDQRTEGDSQEMVRLLLQAIQSFEKKVRVIYTQLSKTVVCKQKALELLPKVEEVVSLMNEDEKTVVRLQEKRQKELWNLLKIACSKVRGPVSGSPDSMNASRLSQPGQLMSQPSTASNSLPEPAKKSEELVAEAHNLCTLLENAIQDTVREQDQSFTALDWSWLQTEEEEHSCLEQAS
3 | binds | binds | KLHDC10 (other, human, UniProt Q6PID8 1-442, looked up) MSAAQGWDRNRRRGGGAAGAGGGGSGAGGGSGGSGGRGTGQLNRFVQLSGRPHLPGKKKIRWDPVRRRFIQSCPIIRIPNRFLRGHRPPPARSGHRCVADNTNLYVFGGYNPDYDESGGPDNEDYPLFRELWRYHFATGVWHQMGTDGYMPRELASMSLVLHGNNLLVFGGTGIPFGESNGNDVHVCNVKYKRWALLSCRGKKPSRIYGQAMAIINGSLYVFGGTTGYIYSTDLHKLDLNTREWTQLKPNNLSCDLPEERYRHEIAHDGQRIYILGGGTSWTAYSLNKIHAYNLETNAWEEIATKPHEKIGFPAARRCHSCVQIKNDVFICGGYNGEVILGDIWKLNLQTFQWVKLPATMPEPVYFHCAAVTPAGCMYIHGGVVNIHENKRTGSLFKIWLVVPSLLELAWEKLLAAFPNLANLSRTQLLHLGLTQGLIERLK
4 | binds | binds | KLHL11 (other, human, UniProt Q9NVR0 16-708, looked up) ASLQVLEMESMETAAAGSAGLAAEVRGSGTVDFGPGPGISAMEASGGDPGPEAEDFECSSHCSELSWRQNEQRRQGLFCDITLCFGGAGGREFRAHRSVLAAATEYFTPLLSGQFSESRSGRVEMRKWSSEPGPEPDTVEAVIEYMYTGRIRVSTGSVHEVLELADRFLLIRLKEFCGEFLKKKLHLSNCVAIHSLAHMYTLSQLALKAADMIRRNFHKVIQDEEFYTLPFHLIRDWLSDLEITVDSEEVLFETVLKWVQRNAEERERYFEELFKLLRLSQMKPTYLTRHVKPERLVANNEVCVKLVADAVERHALRAENIQSGTCQHPTSHVSLLPRYGQNMDVIMVIGGVSEGGDYLSECVGYFVDEDRWVNLPHIHNHLDGHAVAVTESYVYVAGSMEPGFAKTVERYNPNLNTWEHVCSLMTRKHSFGLTEVKGKLYSIGGHGNFSPGFKDVTVYNPELDKWHNLESAPKILRDVKALAIEDRFVYIAARTPVDRDTEDGLKAVITCYDTETRQWQDVESLPLIDNYCFFQMSVVNSNFYQTASCCPKSYCLENEEAVRKIASQVSDEILESLPPEVLSIEGAAICYYKDDVFIIGGWKNSDDIDKQYRKEAYRYCAERKRWMLLPPMPQPRCRATACHVRIPYRYLHGTQRYPMPQNLMWQKDRIRQMQEIHRHALNMRRVPSSQIEC
5 | binds | binds | KLHL21 (other, human, UniProt Q9UJP4 1-597, looked up) MERPAPLAVLPFSDPAHALSLLRGLSQLRAERKFLDVTLEAAGGRDFPAHRAVLAAASPYFRAMFAGQLRESRAERVRLHGVPPDMLQLLLDFSYTGRVAVSGDNAEPLLRAADLLQFPAVKEACGAFLQQQLDLANCLDMQDFAEAFSCSGLASAAQRFILRHVGELGAEQLERLPLARLLRYLRDDGLCVPKEEAAYQLALRWVRADPPRRAAHWPQLLEAVRLPFVRRFYLLAHVEAEPLVARCPPCLRLLREARDFQAARYDRHDRGPCPRMRPRPSTGLAEILVLVGGCDQDCDELVTVDCYNPQTGQWRYLAEFPDHLGGGYSIVALGNDIYVTGGSDGSRLYDCVWRYNSSVNEWAEVAPMLKAREYHSSSVLDGLLYVVAADSTERYDHTTDSWEALQPMTYPMDNCSTTACRGRLYAIGSLAGKETMVMQCYDPDTDLWSLVDCGQLPPWSFAPKTATLNGLMYFVRDDSAEVDVYNPTRNEWDKIPSMNQVHVGGSLAVLGGKLYVSGGYDNTFELSDVVEAYDPETRAWSVVGRLPEPTFWHGSVSIFRQFMPQTFSGGRGFELDSGSDDMDPGRPRPPRDPDELH
6 | binds | binds | KLHL26 (other, human, UniProt Q53HC5 2-615, looked up) AESGGSSGGAGGGGAFGAGPGPERPNSTADKNGALKCTFSAPSHSTSLLQGLATLRAQGQLLDVVLTINREAFPAHKVVLAACSDYFRAMFTGGMREASQDVIELKGVSARGLRHIIDFAYSAEVTLDLDCVQDVLGAAVFLQMLPVVELCEEFLKAAMSVETCLNIGQMATTFSLASLRESVDAFTFRHFLQIAEEEDFLRLPLERLVFFLQSNRLQSCAEIDLFRAAVRWLQHDPARRPRASHVLCHIRFPLMQSSELVDSVQTLDIMVEDVLCRQYLLEAFNYQVLPFRQHEMQSPRTAVRSDVPSLVTFGGTPYTDSDRSVSSKVYQLPEPGARHFRELTEMEVGCSHTCVAVLDNFVYVAGGQHLQYRSGEGAVDACYRYDPHLNRWLRLQAMQESRIQFQLNVLCGMVYATGGRNRAGSLASVERYCPRRNEWGYACSLKRRTWGHAGAASGGRLYISGGYGISVEDKKALHCYDPVADQWEFKAPMSEPRVLHAMVGAGGRIYALGGRMDHVDRCFDVLAVEYYVPETDQWTSVSPMRAGQSEAGCCLLERKIYIVGGYNWRLNNVTGIVQVYNTDTDEWERDLHFPESFAGIACAPVLLPRAGTRR
7 | binds | binds | MAEA (other, human, UniProt Q7L5Y9 1-396, looked up) MAVQESAAQLSMTLKVQEYPTLKVPYETLNKRFRAAQKNIDRETSHVTMVVAELEKTLSGCPAVDSVVSLLDGVVEKLSVLKRKAVESIQAEDESAKLCKRRIEHLKEHSSDQPAAASVWKRKRMDRMMVEHLLRCGYYNTAVKLARQSGIEDLVNIEMFLTAKEVEESLERRETATCLAWCHDNKSRLRKMKSCLEFSLRIQEFIELIRQNKRLDAVRHARKHFSQAEGSQLDEVRQAMGMLAFPPDTHISPYKDLLDPARWRMLIQQFRYDNYRLHQLGNNSVFTLTLQAGLSAIKTPQCYKEDGSSKSPDCPVCSRSLNKLAQPLPMAHCANSRLVCKISGDVMNENNPPMMLPNGYVYGYNSLLSIRQDDKVVCPRTKEVFHFSQAEKVYIM
